# Experimental data published in the DeepSol protein solubility set.
# Assay: soluble on expression in E. coli; label from the status in PepcDB or PDB records
row,Sequence,soluble on expression in E. coli
1,MTKSVDTLLIPGPIILSGAVQKALDVPSLGHTSPEFVSIFQRVLKNTRAVFKSAAASKSQPFVLAGSGTLGWDIFASNFILSKAPNKNVLVVSTGTFSDRFADCLRSYGAQVDVVRPLKIGESVPLELITEKLSQNSYGAVTVTHVDTSTAVLSDLKAISQAIKQTSPETFFVVDAVCSIGCEEFEFDEWGVDFALTASQKAIGAPAGLSISLCSSRFMDYALNDSKNGHVHGYFSSLRRWTPIMENYEAGKGAYFATPPVQLINSLDVALKEILEEGLHKRWDLHREMSDWFKDSLVNGLQLTSVSRYPSNMSAHGLTAVYVADPPDVIAFLKSHGVVIAGGIHKDIGPKYIRIGHMGVTACNKNLPYMKNCFDLIKLALQRKK,soluble
2,KMGKTPKTEILSFEQYQVTPYLSGLLELDPDTEVFELERLRIADDMPLMFERSYIPAQPFQGLSIADLKRKALYDIFAKDYQETIRLAEEEFYASIALDYEAGLLGIKKGDPVLHIIRKTYNDKNILIELTFSIARADQFRYRVQHHPNG,not soluble
3,MGSDKIHHHHHHMTDLAPILAEADKALPQSLDRLFDLVRIASISTDPAYKADCRKAAEWLAQELKGLGFNASVRDTPGHPMVVGHHDADRPDAPHVLFYGHYDVQPVDPLDLWENDPFEPAIKEIEPGRKVITGRGTSDDKGQLMTFVEACRAYKAVHGGLPIKITILFEGEEESGSPSLKPFLAANEDELKCDFALVCDTGMWDRETPAIAAALRGLVGEEVTVTAADRDLHSGLFGGAAANPIHILAKVLADLHDETGRVTIDGFYEGVEETPVNIKASWEKLGRTADKFLNDVGLSIPSGETGRSVLELTWARPTAEVNGITGGYTGEGFKTVIASKASAKVSFRLVGEQDPAKIRENFRAFVKARIPGDCSVEFHEHGASPAIQLPYDSPFLTKAKSALSDEWPKPAEVIGMGGSIPIVGDFQTMLGMDSLLVGFGLVDDRIHSPNEKYELESFHKGIRSWIRILDALAH,not soluble
4,MDTPENVLQMLEAHMQSYKGNDPLGEWERYIQWVEENFPENKEYLITLLEHLMKEFLDKKKYHNDPRFISYCLKFAEYNSDLHQFFEFLYNHGIGTLSSPLYIAWAGHLEAQGELQHASAVLQRGIQNQAEPREFLQQQYRLFQTRLTETHLPAQARTSEPLHNVQVLNQMITSKSNPGNNMACISKNQGSELSGVISSACDKESNMERRVITISKSEYSVHSSLASKVDVEQVVMYCKEKLIRGESEFSFEELRAQKYNQRRKHEQWVNEDRHYMKRKEANAFEEQLLKQKMDELHKKLHQVVETSHEDLPASQERSEVNPARMGPSVGSQQELRAPCLPVTYQQTPVNMEKNPREAPPVVPPLANAISAALVSPATSQSIAPPVPLKAQTVTDSMFAVASKDAGCVNKSTHEFKPQSGAEIKEGCETHKVANTSSFHTTPNTSLGMVQATPSKVQPSPTVHTKEALGFIMNMFQAPTLPDISDDKDEWQSLDQNEDAFEAQFQKNVRSSGAWGVNKIISSLSSAFHVFEDGNKENYGLPQPKNKPTGARTFGERSVSRLPSKPKEEVPHAEEFLDDSTVWGIRCNKTLAPSPKSPGDFTSAAQLASTPFHKLPVESVHILEDKENVVAKQCTQATLDSCEENMVVPSRDGKFSPIQEKSPKQALSSHMYSASLLRLSQPAAGGVLTCEAELGVEACRLTDTDAAIAEDPPDAIAGLQAEWMQMSSLGTVDAPNFIVGNPWDDKLIFKLLSGLSKPVSSYPNTFEWQCKLPAIKPKTEFQLGSKLVYVHHLLGEGAFAQVYEATQGDLNDAKNKQKFVLKVQKPANPWEFYIGTQLMERLKPSMQHMFMKFYSAHLFQNGSVLVGELYSYGTLLNAINLYKNTPEKVMPQGLVISFAMRMLYMIEQVHDCEIIHGDIKPDNFILGNGFLEQDDEDDLSAGLALIDLGQSIDMKLFPKGTIFTAKCETSGFQCVEMLSNKPWNYQIDYFGVAATVYCMLFGTYMKVKNEGGECKPEGLFRRLPHLDMWNEFFHVMLNIPDCHHLPSLDLLRQKLKKVFQQHYTNKIRALRNRLIVLLLECKRSRK,soluble
5,LNDAWFNSSVVRAMLTHTRVFGRYEGPEEKLFRTANYTEINCIDNYAPTEMIEVKVTDRSGAVVEGADIRFCIYNYSEFYPVVTKQSDAQGLASLRVGKGDMLIWAAKDGLFGYALSKADDRKPLAIALDNFEAQPEWADFKIVPPAGDPIPTTCSPQQISTNDARLLREDSIRAAYEATFATAEQSAALAAELGVDAPALTGILQTSRGNHADIEGFLRSVEAGKARQRAMDLLQTVSPKDLTDTPESLLKVIFRDMAEPAPEAASGEAYRHHLRYVASPRIYTEMLSSFVPTLRSILTAKEQEAMRQDPAELVRWVSSNIRLDTLYNTQYTTITPVGVWRAKRADLRSMGIFFVAMARTLGIPARYDEVTGKIQYSKELMPLRWSDVNLRESKTALKEQGSLALDYSPTALAPNPNYYSRFTVAELQPSGIIRTLYYDENEPTDLKTLFDRPKEMNAGHYFLVTGTRMASGSVLCRMRKFTVEAGKTARQPLELLHDSTDIQVIGSINAEQLYHDLSHAEDRSLLSTTGRGYFAMAILGAGQEPTNHALKDLEKVKADFEQWGRKLILLFPDADGHKRYKPADFPSLPETAVFGLDIQGRNAAMIREAANLPDATNLPIVIIADSFGRVVFVRQGYTIGLGEQMMQVIHRL,not soluble
6,MPKNKGKGGKNRRRGKNENDFMKRELDLKEEGQEYGQVSKMLGNGRVQVFCFDGKQRVCHIRGKLRKKVWINVGDIILVGLRDYQDDKGDVILKYTPDEARRLKNEGLIPENAKLNENDEQDEGEVEFLDHVGDEGEAGEAKSDSDSSDSDSEKSDEEAGSDKEEESDDDSEEESDEDSDDSDNIREEDLAAGRGFKEDTRRGGNRGGKNKYGKRR,soluble
7,MPSNPTRKGRVVVGMSGGVDSSVTAWLLKQQGYEVVGLFMKNWEDDDDSEYCSTRQDLLDAASVADLVGVEFEYVNFAAEYKDRVFAEFLREYSAGRTPNPDVLCNAEIKFKAFLDHAMALGAEHIATGHYARVRTVETPAGPRHQLLKALDDTKDQSYFLHRLNQVQLARTLFPLGELRKTEVRRIAHEIGLHNAAKKDSTGICFIGERPFREFLNRYLPSEPGPILTPEGQRVGTHHGLSFYTLGQRKGLGVGGVKGRQRDDGTAEAWYAARKDLARNVLYVVQGHDHPWLLSAQLQAQDASWIAGEPPAAGAYGAKTRYRQADAACRLDQAGGERFALAFEQAQWAVTPGQSAVLYDGEVCLGGGIIILEHHHHHH,soluble
8,MAFLPLYIPKGRRLKIVIVGGGYAGIAALVTLHRYSPDAEITLIDPGIDHLKITHLHETFRYPLSDFLVPYAFLEQRFGCRHIRSALAVDESMLCQWQRDRYLQVDDQQVPFDYLLVASGARSFTRNETDERTAADAENIVRLENFFTVSGADLLDRFLATQDRAGNTAPSCISVVGGGATGIQFLFELAGYLRRRRINHGLQLVDDNERVLQRYPGGFARYVEMRMLELDIEFYPGVCFLEQRADTVLLEDKTSGRHFELPSVLSLVFTGNRQDNLIKTNAFGQVMVDGKPLGNIFAAGDCSVYPSLGSNTMTAQSAVRKGKLAARNILRHSGVLKVLEPYLHHDLGYVVSLGPEDAVGWLAVENNVVTGVPALAIKEIVEAQYDLLLSGVDTYLVLEHHHHHH,not soluble
9,MSLSQPSFGLSNTATQGTLGQQSLVQPQNQQPQLAAQQLQSQQLSRYPQLIQEQILKCKESWDSNSYKTSLRSFVYNKVNETDAILYTKPTNVSQEEWDKAIENKPSSDLIPIQVFGFEGLNNRNQIQVENVAQARVILNQILDKTKQLQQSHSFETSARIMKVQARNAQIEKRILKLGTQLAILKNRRLPLTISEEKMWGQFQELLKSSNDPAGLGKTNELWARLAVLRERAKTISEQLDSKLVIIGEGHHHHHH,soluble
10,MTMKCFLVILPLLVLYWIVSNRKRSGPLTNPHYKECLRKEWYTSPNVSSTEDFGSSYQISFADVQKTFKWLYLPEIDDPEIILTVMTRVDALARRNVLRKTWMTQRNRIKSIFVIGLGGDVDQKTKELVMSEAALYGDMVVTNIEDSFSKVAFKMLSMLLYGFSKVPSAKFIGKVDDDVLFYPNVLLSYMDNNTDTIHPQGSRMYGHITETRFITAGIPTGAECCEKFDSDSKCANYVTFLGGSFLMFTRQAVEGVLMASKHRKFHRIDDTMVTGYLADDVGAQRVNMTMMFMGYEPTKEPILFSSHIPLKDHEYLEQYRIQMADFKEQRLFTKYIGE,not soluble
11,MGSDKIHHHHHHVWNDRVELSGKCEYALLALIELARGHSNGEPQQIKQLADRQNIPDRYLEQLLATLRRGGIVRSVRGARGGYLLAREPWQISMQDVVHCIDGTEMQRTEAIDQQSVTIERQILVDINVELCKAVEDVLAAYSLQDLLEIRENRASTDLMYYI,not soluble
12,MSFLGFTLVGKKIRWTEKSLANFKHRVRQLTGRSWGVSMEYRLEKLGQYLRGWFGYYGISQYYRPIPELDEWIRRRVRMCYWKQWRWARTKIRHLLDLGIPLKAAIQHGVSSLSYWRMARTPLEHHHHHH,soluble
13,STQESTQCHRSYLLPSGNSVTLSESTAIVSHGTTGLVTWDAALYLAEWAIENPAAFTDRTILELGSGAGLTGLAICKACCPRAYIFSDCHAQVLEQLRGNVLLNGFSLEPHTPIDAGSSKVTVAQLDWDEVTASQLSAFQADVVIAADVLYCWEMTLSLVRVLKMLEDCQRKSAPDVYVAYTIRSQDTGKLFIEELDRAGIYWEEVPPHTGKLFPYEEHSAIVILKLVLTSRHGV,soluble
14,MRYTDSRKLTPETDANHKTASPQPIRRISSQTLLGPDGKLIIDHDGQEYLLRKTQAGKLLLTK,soluble
15,KVMMPKVEERDDSEAPKAFFSEYEICNPALDGKSVREVALLLKRPFVITRVWHNGKVEIPTSDMILYFGDHILAVSGEEDTSQLEILFGKREMKDWNRPDIDWNSVDKQLVSRRLVITRPKLNGVRLGMLKIRNLYGVNISRVDRAGVELLPDRDLRLQLGDRLTVVGEGKAVERVAEILGDEVKQLDNPH,not soluble
16,MLNQKIQNPNPDELMIEVDLCYELDPYELKLDEMIEAEPEPEMIEGLPASDALTPADRYLELFEHVQSAKIFPDSKTFPDCAPKMDPLDILIRYRKVRRHRDFDLRKFVENHFWLPEVYSSEYVSDPQNSLKEHIDQLWPVLTREPQDHIPWSSLLALPQSYIVPGGRFSETYYWDSYFTMLGLAESGREDLLKCMADNFAWMIENYGHIPNGNRTYYLSRSQPPVFALMVELFEEDGVRGARRYLDHLKMEYAFWMDGAESLIPNQAYRHVVRMPDGSLLNRYWDDRDTPRDESWLEDVETAKHSGRPPNEVYRDLRAGAASGWDYSSRWLRDTGRLASIRTTQFIPIDLNAFLFKLESAIANISALKGEKETEALFRQKASARRDAVNRYLWDDENGIYRDYDWRREQLALFSAAAIVPLYVGMANHEQADRLANAVRSRLLTPGGILASEYETGEQWDKPNGWAPLQWMAIQGFKMYGDDLLGDEIARSWLKTVNQFYLEQHKLIEKYHIADGVPREGGGGEYPLQDGFGWTNGVVRRLIGLYGEPLEHHHHHH,not soluble
17,MNVIRTEIEDVLILEPRVFGDDRGFFYESFNQSAFEHILGYPVSFVQDNHSRSSKNVLRGLHFQRGEYAQDKLVRCTHGAVFDVAVDIRPNSVSFGKWVGVLLSADNKQQLWIPKGFAHGFLVLSDIAEFQYKTTNYYHPESDCGICWNDERIAIDWPQTSGLILSPKDERLFTLDELIRLKLIA,not soluble
